In patent US20240294611A1:
Where “and” joins values, the source holds several entries; their conditions need not be identical. Equal entries are not always repeated.

What was measured:
[1] = target: SARS-CoV-2 HexaPro spike (SARS-CoV-2) (UniProt P0DTC2)
[2] = target: SARS-CoV spike without stabilizing modifications on pseudovirus (SARS-CoV) (UniProt P59594); assay: cell-based or functional assay
[3] = target: wild-type SARS-CoV-2 spike without stabilizing modifications (on cells or pseudovirus) (SARS-CoV-2) (UniProt P0DTC2); assay: cell-based or functional assay

Row | Substance | Kd [1] | Pseudovirus IC50 [2] [nM] | Pseudovirus IC50 [3] [nM]
1 | antibody S309 (Pinto et al., 2020) | 18 nM and 24 nM | 0.5 | 1
2 | isotype control antibody with irrelevant binding |  | > 5000 | > 5000
